Results published in patent publication US20210115127A1 (SURFACE ONCOLOGY, published 2021).

B1: recombinant human IL-27 (heterodimer of IL-27p28 and EBI3) (ligand)
chain 1: FPRPPGRPQLSLQELRREFTVSLHLARKLLSEVRGQAHRFAESHLPGVNLYLLPLGEQLPDVSLTFQAWRRLSDPERLCFISTTLQPFHALLGGLGTQGRWTNMERMQLWAMRLDLRDLQRHLRFQVLAAGFNLPEEEEEEEEEEEEERKGLLPGALGSALQGPAQVSWPQLLSTYRLLHSLELVLSRAVRELLLLSKAGHSVWPLGFPTLSPQP
chain 2: RKGPPAALTLPRVQCRASRYPIAVDCSWTLPPAPNSTSPVSFIATYRLGMAARGHSWPCLQQTPTSTSCTITDVQLFSMAPYVLNVTAVHPWGSSSSFVPFITEHIIKPDPPEGVRLSPLAERQLQVQWEPPGSWPFPEIFSLKYWIRYKRQGAARFHRVGPIEATSFILRAVRPRARYYVQVAAQDLTDYGELSDWSLPATATMSLGK
notes: Bought recombinant protein (R&D Systems 2526-IL) in the cell and ForteBio assays; also called rhIL-27
B3: human IL-27p28 subunit (ligand)
chain: FPRPPGRPQLSLQELRREFTVSLHLARKLLSEVRGQAHRFAESHLPGVNLYLLPLGEQLPDVSLTFQAWRRLSDPERLCFISTTLQPFHALLGGLGTQGRWTNMERMQLWAMRLDLRDLQRHLRFQVLAAGFNLPEEEEEEEEEEEEERKGLLPGALGSALQGPAQVSWPQLLSTYRLLHSLELVLSRAVRELLLLSKAGHSVWPLGFPTLSPQP

Experiments:
gp130 [1] = biological target: T1, gp130 (human, UniProt P40189 23-619, limits assumed); assay: SPR on gp130; trace (2), rhIL-27 alone, and trace (1), rhIL-27 + Anti-IL-27 Ab1, both rise to about 45 RU
T1 construct: also called IL6ST; Interleukin-6 Signal Transducer
T1 sequence: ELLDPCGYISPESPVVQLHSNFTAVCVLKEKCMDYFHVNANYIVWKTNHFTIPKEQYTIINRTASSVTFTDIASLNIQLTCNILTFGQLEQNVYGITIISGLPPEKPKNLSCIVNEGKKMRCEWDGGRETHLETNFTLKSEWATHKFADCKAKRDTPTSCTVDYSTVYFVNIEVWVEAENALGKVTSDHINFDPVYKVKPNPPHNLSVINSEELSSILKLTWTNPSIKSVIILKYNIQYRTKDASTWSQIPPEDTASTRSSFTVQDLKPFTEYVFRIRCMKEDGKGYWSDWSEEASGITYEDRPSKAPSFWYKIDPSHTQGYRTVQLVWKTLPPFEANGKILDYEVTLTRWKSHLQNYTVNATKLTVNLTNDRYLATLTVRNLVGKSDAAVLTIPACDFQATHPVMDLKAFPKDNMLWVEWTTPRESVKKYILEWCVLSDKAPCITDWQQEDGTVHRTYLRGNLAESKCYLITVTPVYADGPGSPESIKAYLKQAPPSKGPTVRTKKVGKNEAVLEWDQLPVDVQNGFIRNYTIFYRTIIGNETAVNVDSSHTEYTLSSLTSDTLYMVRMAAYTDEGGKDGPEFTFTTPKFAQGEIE

IL-27RA (WSX-1) [2] = biological target: T2, IL-27RA (WSX-1) (human, UniProt Q6UWB1 33-516, limits assumed); assay: SPR on WSX-1; trace (2), rhIL-27 alone, rises to about 210 RU; trace (1), rhIL-27 + Anti-IL-27 Ab1, stays at or below 0 RU
T2 construct: also called IL-27Rα; IL-27 receptor subunit alpha
T2 sequence: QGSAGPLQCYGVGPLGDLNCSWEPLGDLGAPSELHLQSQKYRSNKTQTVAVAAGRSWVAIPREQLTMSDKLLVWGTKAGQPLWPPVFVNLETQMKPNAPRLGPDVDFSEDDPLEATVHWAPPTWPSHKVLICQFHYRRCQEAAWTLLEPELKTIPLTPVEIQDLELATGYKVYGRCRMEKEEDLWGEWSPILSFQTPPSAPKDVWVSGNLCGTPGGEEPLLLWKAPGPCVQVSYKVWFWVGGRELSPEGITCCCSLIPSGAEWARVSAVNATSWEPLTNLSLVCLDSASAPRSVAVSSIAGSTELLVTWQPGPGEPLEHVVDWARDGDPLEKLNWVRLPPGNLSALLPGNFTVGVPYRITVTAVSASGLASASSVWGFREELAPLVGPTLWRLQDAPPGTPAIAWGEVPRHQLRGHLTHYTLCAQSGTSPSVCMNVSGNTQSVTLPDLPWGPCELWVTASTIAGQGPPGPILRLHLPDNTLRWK

gp130 [3] = biological target: T1, gp130; assay: Drawn table Ligand / Analyte / Result, ligand gp130, analyte IL-27 heterodimer; method not named for this figure (SPR is used in the same example)
human IL-27p28 subunit [4] = biological target: B3; assay: binding affinity data of FIG. 17; method not stated
IL-27RA (WSX-1) [5] = biological target: T2, IL-27RA (WSX-1); assay: Drawn table Ligand / Analyte / Result, ligand WSX-1, analyte EBI3 alone; method not named for this figure (SPR is used in the same example)
human IL-27p28 subunit [6] = biological target: B3; assay: Drawn table Ligand / Analyte / Result, ligand p28 held by Anti-IL-27 Ab3 (anti-p28), analyte EBI3; method not named for this figure (SPR is used in the same example)
gp130 [7] = biological target: T1, gp130; assay: Drawn table Ligand / Analyte / Result, ligand gp130, analyte p28 alone; method not named for this figure (SPR is used in the same example)
[8] = biological target: B1; assay: cell-based or functional assay
[9] = biological target: B1; assay: cell-based or functional assay; remark: listed apart in the source
[10] = biological target: T3, recombinant cynomolgus monkey IL-27 (cynomolgus monkey, UniProt A0A2K5UBM6 29-244; A0A2K5WPB7 36-244); assay: cell-based or functional assay
T3 sequence (alpha): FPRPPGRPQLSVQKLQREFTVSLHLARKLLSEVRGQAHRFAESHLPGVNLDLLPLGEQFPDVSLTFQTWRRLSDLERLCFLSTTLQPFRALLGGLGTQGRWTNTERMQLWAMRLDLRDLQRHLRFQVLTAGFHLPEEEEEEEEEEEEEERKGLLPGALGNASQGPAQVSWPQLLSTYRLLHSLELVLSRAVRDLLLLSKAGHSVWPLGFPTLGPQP
T3 sequence (beta): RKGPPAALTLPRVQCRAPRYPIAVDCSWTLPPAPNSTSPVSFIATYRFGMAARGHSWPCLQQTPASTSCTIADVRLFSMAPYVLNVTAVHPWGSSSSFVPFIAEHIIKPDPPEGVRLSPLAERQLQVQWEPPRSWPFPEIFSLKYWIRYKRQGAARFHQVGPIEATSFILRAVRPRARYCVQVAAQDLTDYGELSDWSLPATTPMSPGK

recombinant rat IL-27 = biological target: T4, recombinant rat IL-27 (rat, UniProt D3ZPW3 29-234; M0RD76 19-228); assay: cell-based or functional assay
T4 sequence (alpha): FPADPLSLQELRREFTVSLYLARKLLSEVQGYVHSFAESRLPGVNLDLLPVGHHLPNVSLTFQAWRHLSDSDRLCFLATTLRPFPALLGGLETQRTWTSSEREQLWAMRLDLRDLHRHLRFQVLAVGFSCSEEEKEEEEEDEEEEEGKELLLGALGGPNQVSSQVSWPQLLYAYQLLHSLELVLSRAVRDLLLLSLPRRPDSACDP
T4 sequence (beta): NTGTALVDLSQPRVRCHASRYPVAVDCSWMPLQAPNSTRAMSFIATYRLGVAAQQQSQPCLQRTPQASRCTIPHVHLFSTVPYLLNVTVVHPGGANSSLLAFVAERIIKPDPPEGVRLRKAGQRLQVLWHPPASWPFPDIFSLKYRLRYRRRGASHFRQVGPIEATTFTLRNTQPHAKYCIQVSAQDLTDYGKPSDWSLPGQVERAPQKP

recombinant mouse IL-27 = biological target: T5, recombinant mouse IL-27 (mouse, UniProt Q8K3I6 29-234; O35228 19-228); assay: cell-based or functional assay
T5 sequence (looked up) 1: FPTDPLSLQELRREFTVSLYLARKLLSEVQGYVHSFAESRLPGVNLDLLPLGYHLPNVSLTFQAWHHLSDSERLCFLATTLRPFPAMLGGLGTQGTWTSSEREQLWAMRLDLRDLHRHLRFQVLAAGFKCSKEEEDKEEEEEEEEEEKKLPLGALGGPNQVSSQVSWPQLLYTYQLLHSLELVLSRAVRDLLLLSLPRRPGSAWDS
T5 sequence (looked up) 2: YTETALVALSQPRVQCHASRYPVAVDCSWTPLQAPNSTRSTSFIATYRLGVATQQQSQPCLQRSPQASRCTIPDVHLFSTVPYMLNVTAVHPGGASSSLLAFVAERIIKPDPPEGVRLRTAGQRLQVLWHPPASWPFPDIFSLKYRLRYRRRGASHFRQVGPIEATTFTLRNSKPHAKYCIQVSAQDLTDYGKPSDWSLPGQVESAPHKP

Binder: B1
- Kd (gp130 [1]): 4.1 nM
- Kd (IL-27RA (WSX-1) [2]): 0.0206 nM
- Kd (gp130 [3]): 34 nM

B2: human EBI3 subunit (ligand)
chain: RKGPPAALTLPRVQCRASRYPIAVDCSWTLPPAPNSTSPVSFIATYRLGMAARGHSWPCLQQTPTSTSCTITDVQLFSMAPYVLNVTAVHPWGSSSSFVPFITEHIIKPDPPEGVRLSPLAERQLQVQWEPPGSWPFPEIFSLKYWIRYKRQGAARFHRVGPIEATSFILRAVRPRARYYVQVAAQDLTDYGELSDWSLPATATMSLGK
- Kd (human IL-27p28 subunit [4]): 5 nM
- Kd (IL-27RA (WSX-1) [5]): 3.81 nM
- Kd (human IL-27p28 subunit [6]): 5.07 nM

Binder: B3
- Kd (gp130 [7]): ~1000 nM

B4: anti-IL-27 Ab3 (antibody, V domains shown)
VH: EVQLVESGGGLVKPGGSLRLSCAASGFTFRSYGMNWVRQAPGKGLEWVSSISSSSSYIYYADSVKGRFTISRDNAKNSLYLQMNSLRAEDTAVYYCARDGGRTSYTATAHNWFDPWGQGTLVTVSS
VL: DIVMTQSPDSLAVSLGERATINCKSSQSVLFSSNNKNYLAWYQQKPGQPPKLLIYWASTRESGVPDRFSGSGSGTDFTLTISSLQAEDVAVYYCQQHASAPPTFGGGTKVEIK
- IC50, inhibition of phosphorylation of STAT1 in HUT-78 cells (flow cytometry) [8]: 0.08 µg/mL
- IC50, inhibition of phosphorylation of STAT1 in U937 cells (flow cytometry) [8]: 0.081 µg/mL
- IC50, inhibition of phosphorylation of STAT1 in pooled human PBMCs (flow cytometry) [8]: 0.141 µg/mL

B5: anti-IL-27 Ab1 (antibody, V domains shown)
VH: EVQLVESGGGLVKPGGSLRLSCAASGFTFRSYGMNWVRQAPGKGLEWVSGISSSGSYIYYADSVKGRFTISRDNAKNSLYLQMNSLRAEDTAVYYCARDGGRTSYTATAHNWFDPWGQGTLVTVSS
VL: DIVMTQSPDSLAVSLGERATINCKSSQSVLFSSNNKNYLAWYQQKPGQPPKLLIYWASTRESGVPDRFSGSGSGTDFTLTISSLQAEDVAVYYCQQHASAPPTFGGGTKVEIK
- IC50, inhibition of phosphorylation of STAT1 in HUT-78 cells (flow cytometry) [8]: 0.095 µg/mL
- IC50, inhibition of phosphorylation of STAT1 in U937 cells (flow cytometry) [8]: 0.096 µg/mL
- IC50, inhibition of phosphorylation of STAT1 in pooled human PBMCs (flow cytometry) [8]: 0.0583 µg/mL
- Average IC50, ng/mL; IL-27 pSTAT1 signaling inhibition in peripheral blood T cells, human [9]: 78.4 ng/mL
- Average IC50, ng/mL; IL-27 pSTAT1 signaling inhibition in peripheral blood T cells, cynomolgus monkey [10]: 118 ng/mL
- Average IC50, ng/mL; IL-27 pSTAT1 signaling inhibition in peripheral blood T cells, rat (recombinant rat IL-27): 273 ng/mL
- Average IC50, ng/mL; IL-27 pSTAT1 signaling inhibition in peripheral blood T cells, mouse (recombinant mouse IL-27): 1720 ng/mL
